{"source": "paper PMC9929448", "about": "“Structural analysis of the interaction between human cytokine BMP-2 and the antagonist Noggin reveals molecular details of cell chondrogenesis inhibition” (The Journal of Biological Chemistry, 2023)", "molecular_target": "the molecule itself", "experiment": "intact protein mass determination (UHPLC-HRMS); reverse-phase C4 column, water/acetonitrile with 0.1% formic acid, electrospray, QTof; covalent (disulphide) dimer", "data": [{"protein": "Noggin (residues 28-232) (natural protein, biotin (biotinylated Noggin in the BLI experiments); methionine oxidation, mainly on the N-terminal methionine, in part of the sample, Noggin, residues 28-232 of UniProt Q13253; Disulphide-linked homodimer; No tag (pET-17(b)); for the crystal, SEC-MALS and cell assays no biotinylation is mentioned; also called antagonist Noggin; recombinant Noggin) MQHYLHIRPAPSDNLPLVDLIEHPDPIFDPKEKDLNETLLRSLLGGHYDPGFMATSPPEDRPGGGGGAAGGAEDLAELDQLLRQRPSGAMPSEIKGLEFSEGLAQGKKQRLSKKLRRKLQMWLWSQTFCPVLYAWNDLGSRFWPRYVKVGSCFSKRSCSVPEGMVCKPSKSVHLTVLRWRCQRRGGQRCGWIPIQYPIISECKCSC", "values": [{"measurement": "stoichiometry N", "value": 2}]}]}
